Data: US20220389066A1, “POLYPEPTIDES” (Affibody AB, priority 2019, published 2022)

What was measured:
[1] = molecular target: T1, ZH 01 as periplasmic ABD fusion AQHDEALE-[ZH 01]-VDYV-[ABD]-YVPG (Streptococcus strain G148, UniProt P19909 254-299, limits assumed); test: SPR (Biacore 2000) screening; periplasmic Z-ABD captured on anti-ABD antibody, 200 nM boxA(disulfide); 1:1 model
T1 construct: domain: GA3
Protocol: (§1) Biacore screening of Z variants: The binding of Z variants to boxA(disulfide) was analyzed in an affinity screening using a Biacore 2000 instrument. A polyclonal goat anti-ABD antibody (goat anti-ABD) was immobilized on CM5 chip surfaces basically as described for other proteins in Example 3. For the kinetic screening, analytes were injected in two steps. First, a Z-ABD (where ABD is GA3) periplasmic extract was injected over the surface at 5 μl/min for 10 min. As a second step, 200 nM boxA(disulfide) was injected at 20 μl/min for 5 min, followed by 10 min of dissociation in running buffer HBS-EP. Glycine-HCl pH 2.0 (GE Healthcare, cat. no. BR100355) was used for regeneration of the antibody surfaces between the cycles. The temperature of the assay was 25° C. Before performing the kinetic analyses, the signal from 200 nM boxA(disulfide) injected over a reference surface containing goat anti-ABD but no Z-ABD sample was subtracted from the sensorgram of Z-ABD binding to boxA(disulfide). […] A periplasmic extract of ZH 01 was included in the screening analysis for comparison.
(§2) Biacore screening of Z variants: Seven new unique Z variants giving the highest response in ELISA-screen, ZH 04 (SEQ ID NO:4), ZH 05 (SEQ ID NO:5), ZH 06 (SEQ ID NO:6), ZH 07 (SEQ ID NO:7), ZH 08 (SEQ ID NO:8), ZH 09 (SEQ ID NO:9) and ZH 10 (SEQ ID NO:10) were submitted to a Biacore affinity screening together with ZH 01 (SEQ ID NO:1) and ZH 29 (SEQ ID NO:29; its binding motif is identical to that of ZH 01, but the sequence comprises scaffold amino acid variations V1A, D2E, Y5F, N52S and D53E). A single concentration of boxA(disulfide) was injected over each Z-ABD captured from periplasmic extracts on a sensor chip surface containing an anti-ABD antibody.

[2] = molecular target: T2, ZH 05 as periplasmic ABD fusion AQHDEALE-[ZH 05]-VDYV-[ABD]-YVPG (Streptococcus strain G148, UniProt P19909 254-299, limits assumed); test: as above
T2 construct: domain: GA3
Protocol: as §1, §2

[3] = molecular target: T3, ZH 06 as periplasmic ABD fusion AQHDEALE-[ZH 06]-VDYV-[ABD]-YVPG (Streptococcus strain G148, UniProt P19909 254-299, limits assumed); test: as above
T3 construct: domain: GA3
Protocol: as §1, §2

[4] = molecular target: T4, ZH 10 as periplasmic ABD fusion AQHDEALE-[ZH 10]-VDYV-[ABD]-YVPG (Streptococcus strain G148, UniProt P19909 254-299, limits assumed); test: as above
T4 construct: domain: GA3
Protocol: as §1, §2

[5] = molecular target: T5, ZH 08 as periplasmic ABD fusion AQHDEALE-[ZH 08]-VDYV-[ABD]-YVPG (Streptococcus strain G148, UniProt P19909 254-299, limits assumed); test: as above
T5 construct: domain: GA3
Protocol: as §1, §2

[6] = molecular target: T6, ZH 09 as periplasmic ABD fusion AQHDEALE-[ZH 09]-VDYV-[ABD]-YVPG (Streptococcus strain G148, UniProt P19909 254-299, limits assumed); test: as above
T6 construct: domain: GA3
Protocol: as §1, §2

[7] = molecular target: T7, ZH 29 as periplasmic ABD fusion AQHDEALE-[ZH 29]-VDYV-[ABD]-YVPG (Streptococcus strain G148, UniProt P19909 254-299, limits assumed); test: SPR (Biacore 2000) screening; periplasmic Z-ABD captured on anti-ABD antibody, 200 nM boxA(disulfide); 1:1 model; average of 3 measurements
T7 construct: domain: GA3
Protocol: as §1, with “comparison. […]” for “comparison.”

[8] = molecular target: T8, ZH 07 as periplasmic ABD fusion AQHDEALE-[ZH 07]-VDYV-[ABD]-YVPG (Streptococcus strain G148, UniProt P19909 254-299, limits assumed); test: SPR (Biacore 2000) screening; periplasmic Z-ABD captured on anti-ABD antibody, 200 nM boxA(disulfide); 1:1 model; average of 8 measurements
T8 construct: domain: GA3
Protocol: as §1, with “comparison. […]” for “comparison.”

[9] = molecular target: T9, ZH 04 as periplasmic ABD fusion AQHDEALE-[ZH 04]-VDYV-[ABD]-YVPG (Streptococcus strain G148, UniProt P19909 254-299, limits assumed); test: SPR (Biacore 2000) screening; periplasmic Z-ABD captured on anti-ABD antibody, 200 nM boxA(disulfide); 1:1 model; average of 2 measurements
T9 construct: domain: GA3
Protocol: as §1, with “comparison. […]” for “comparison.”

Kd [1]: ~4.7 nM | Kd [2]: ~54 nM | Kd [3]: ~71 nM | Kd [4]: ~47 nM | Kd [5]: ~31 nM | Kd [6]: ~91 nM | Kd [7]: ~36 nM | Kd [8]: ~44 nM | Kd [9]: ~54 nM
B1: boxA(disulfide), disulfide linked form of A-box domain of HMGB1 (other)
chain: MGKGDPKKPRGKMSSYAFFVQTCREEHKKKHPDASVNFSEFSKKCSERWKTMSAKEKGKFEDMAKADKARYEREMKTYIPPKGETKKKF
modifications: disulfide C23-C45
notes: also called b-boxA(disulfide)
